Laboratory results: patent US20260234220A1 (OSPEDALE SAN RAFFAELE S R L, published 2026)

B1: IgG BU.54 (antibody, V domains shown)
VH: LEWGPGLVKASQTLSLTCTVSGGSISSRNFYWSWIRQPGGKGLEWIGRIYTSGSTNYNPSLKSRVTISLDTSKSQFSLKLSSVTAADTAVYYCARGTFYYDRSGNGRLDPLDYWGQGTLVTVS
VL: ELVMTQSPSSLSASVGDRVTITCQASQDISNYLNWYQQKPGKAPKLLIYDASNLETGVPSRFSGSGFGTHFTLTISSLQPEDFATYYCQQHDNLVTFGGGTKVEIK
B2: IgG BU.7 (antibody, V domains shown)
VH: LEWGPGLVKPSETLSLTCTVSGGSISSINYYWVWIRQPPGKGLEWIGNINYSGTTNYNPSLKSRVTISVDTSKNQFSLKLSSVTAADTAVYYCARQTYYYDRRGYYRPEPIEHWGQGTLVTVSS
VL: ELVMTQSPSFLSASVGDRVTITCRASQDVRSFLHWYQQRPGKAPKLLIYAASMVSSEVPSRFSGSGSETDFTLTIDGLQPEDVATYFCQQTYDTPLTFGGGTAVDIK

Biological target: S protein of SARS-CoV-1 on pseudotyped particles (SARS-CoV-1, UniProt P59594 14-1255)
Experiment: cell-based or functional assay

Binder	neutralizing activity expressed as IC50 µg/ml (pseudovirus, luciferase) [µg/mL]
B1	0.4
B2	1.3
